Reference: paper PMC10467048

Experiments:
[1] = target: CTB−JEV EDIII (not stated | Japanese encephalitis virus); experiment: PAGE under non-reduced conditions (without boiling, without DTT)
[2] = target: CTB−JEV EDIII (not stated | Japanese encephalitis virus); experiment: PAGE after incubation at different temperatures
[3] = target: LTB−JEV EDIII (TEV cut) (not stated | Japanese encephalitis virus); experiment: PAGE under non-reduced conditions (without boiling, without DTT)
[4] = target: LTB−JEV EDIII (TEV cut) (not stated | Japanese encephalitis virus); experiment: PAGE after incubation at different temperatures
[5] = target: LTB−JEV EDIII (TEV cut) (not stated | Japanese encephalitis virus); experiment: SEC

| Substance | stoichiometry N [1] | stoichiometry N [2] | stoichiometry N [3] | stoichiometry N [4] | stoichiometry N [5] |
| --- | --- | --- | --- | --- | --- |
| CTB−JEV EDIII | 5 | 5 |  |  |  |
| LTB−JEV EDIII (TEV cut) |  |  | 5 | 5 | 5 |
